Consider 3 molecules from US20240150489A1 (ICHNOS SCIENCES, published 2024).

What is called EC50 (read off the curve) is the concentration giving half of the maximal effect.

The target of assay [1] is T1, Avi-Tagged FcRn (Acrobiosystems, FCM-H82W2) (human, UniProt P55899 24-297, biotinylated (captured with Biotin CAPture kit)).
T1 construct: also called human neonatal Fc receptor
Briefly: SPR steady state, FcRn captured on CAP chip, antibody analyte; reference trastuzumab control IgG1.

The target in assay [2] is T2, CD47 on cells (Daudi cells; human red blood cells) (human, UniProt Q08722 19-323).
T2 construct: whole, on cells; These cells also carry CD38
Briefly: blocking of SIRPα-mIgG1 Fc binding to CD47 on Daudi cells, image-based readout with anti-mouse IgG Fc Alexa Fluor 647, % inhibition; the sheet calls the half-maximal value EC50.

In assay [3] the target is T3, CD38 on cells (Daudi, Raji, KMS-12-PE, NCI-H929, KMS-12-BM) (human, UniProt P28907).
T3 construct: full-length, cell surface; These cells also carry CD47
Briefly: flow cytometry on Raji cells (carry CD38 and CD47), anti-human IgG-Fc PE, GeoMFI; apparent whole-cell value, the anti-CD47 arm also binds. A general note: Flow cytometry measures light scatter and fluorescence of single cells or particles in a stream.

The target in assay [4] is T3, CD38 on cells (Daudi, Raji, KMS-12-PE, …). Briefly: flow cytometry on KMS-12-PE cells (carry CD38 and CD47), anti-human IgG-Fc PE, GeoMFI; apparent whole-cell value, the anti-CD47 arm also binds.
Assay [5] addresses T4, human FcγR3a-ECD-His (human, UniProt P08637 17-193).
T4 construct: His-tagged fusion made in house (UniProt P08637); also called FcγRIIIa; Fc-receptor IIIa
Briefly: SPR steady state, antibody on protein G chip, receptor analyte; reference trastuzumab control IgG1.

Assay [6] concerns the target T5, human FcγR2b-ECD-His (human, UniProt P31994 46-217).
T5 construct: His-tagged fusion made in house (UniProt P31994); also called FcγRIIb; Fc-receptor IIb
T5 sequence: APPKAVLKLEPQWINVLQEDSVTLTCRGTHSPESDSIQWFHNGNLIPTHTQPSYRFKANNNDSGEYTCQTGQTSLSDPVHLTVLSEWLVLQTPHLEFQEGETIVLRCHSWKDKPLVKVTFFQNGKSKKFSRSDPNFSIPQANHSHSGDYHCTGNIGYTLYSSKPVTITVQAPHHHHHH
The description is as above.

Assay [7] deals with T6, human FcγR2a-ECD-His (human, UniProt P12318 34-208).
T6 construct: His-tagged fusion made in house (UniProt P12318); The SPR method names only 'Fc-receptors IIa, IIb, and IIIa'; also called FcγRIIa; Fc-receptor IIa
T6 chain: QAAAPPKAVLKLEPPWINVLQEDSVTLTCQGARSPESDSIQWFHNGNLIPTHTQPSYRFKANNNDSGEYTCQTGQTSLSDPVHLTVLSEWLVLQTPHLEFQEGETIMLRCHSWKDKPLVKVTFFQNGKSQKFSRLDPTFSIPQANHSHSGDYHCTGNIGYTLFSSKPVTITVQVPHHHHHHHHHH
Described as above.

Assay [8] deals with T3, CD38 on cells (Daudi, Raji, KMS-12-PE, …). Briefly: flow cytometry on KMS-12-BM cells (carry CD38 and CD47), anti-human IgG-Fc PE, GeoMFI; apparent whole-cell value, the anti-CD47 arm also binds.
For assay [9] the target is unchanged. Briefly: flow cytometry on NCI-H929 cells (carry CD38 and CD47), anti-human IgG-Fc PE, GeoMFI; apparent whole-cell value, the anti-CD47 arm also binds.
For assay [10], the target named is T7, Avi-Tagged FcγRIa (Acrobiosystems, FCA-H82E8) (UniProt P12314 16-288, biotinylated (captured with Biotin CAPture kit)). Briefly: SPR, FcγRIa captured on CAP chip, antibody analyte; reference trastuzumab control IgG1.
The target of assay [11] is T3, CD38 on cells (Daudi, Raji, KMS-12-PE, …). Briefly: flow cytometry on Daudi cells (carry CD38 and CD47), anti-human IgG-Fc PE, GeoMFI; apparent whole-cell value, the anti-CD47 arm also binds.
For assay [12], the target named is T7, Avi-Tagged FcγRIa (Acrobiosystems, …). Briefly: SPR, FcγRIa captured on CAP chip, antibody analyte; reference trastuzumab control IgG1. The source holds these as a separate data set. A general note: SPR reads the build-up and loss of mass on a sensor chip optically.
Assay [13] concerns the target T4, human FcγR3a-ECD-His. Briefly: SPR steady state, antibody on protein G chip, receptor analyte; reference trastuzumab control IgG1. This is another data set of the same source.
Assay [14] addresses T5, human FcγR2b-ECD-His. Described as above. This is another data set of the same source.
For assay [15], the target named is T6, human FcγR2a-ECD-His. The description is as above.

Where two headings read alike, the source gives them in different places.

B1: BEAT CD38/CD47-48 (bispecific antibody, human IgG1, kappa)
heavy 1: EVQLVESGGGLIQPGGSLRLSCAASGFTLSRNTMHWVRQAPGKGLEWVSVIYQSGVTRYADSVKSRFTISRDNSKNTLYLQMNSLRAEDTAVYYCARGRYGVAGGPGYAFDVWGQGTLVTVSSASTKGPSVFPLAPSSKSTSGGTAALGCLVKDYFPEPVTVSWNSGALTSGVHTFPAVLQSSGLYSLSSVVTVPSSSLGTQTYICNVNHKPSNTKVDKKVEPKSCDKTHTCPPCPAPELLGGPDVFLFPPKPKDTLMISRTPEVTCVVVDVSHEDPEVKFNWYVDGVEVHNAKTKPREEQYNSTYRVVSVLTVLHQDWLNGKEYKCKVNNKALPAPEEKTISKAKGQPREPAVYTLPPSREEMTKNQVKLVCLVTGFYPSDIAVEWESSGQPENNYYTTPPMLDSDGSFSLVSWLNVDKSRWQQGNIFSCSVMHEALHNRFTQKSLSLSPG
heavy 2: not shown
light: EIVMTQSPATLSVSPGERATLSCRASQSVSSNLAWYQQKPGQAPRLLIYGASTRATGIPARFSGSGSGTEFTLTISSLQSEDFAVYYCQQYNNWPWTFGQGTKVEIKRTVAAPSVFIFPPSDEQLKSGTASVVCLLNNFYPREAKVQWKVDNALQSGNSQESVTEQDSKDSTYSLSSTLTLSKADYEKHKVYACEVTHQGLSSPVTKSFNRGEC
notes: 2+1 biparatopic format; the number of light chains follows from the three Fab domains; also called BEAT CD38/47-48; BEAT 38/47-48
For the molecule B1, in assay [1], the “KD ratio [BEAT/Control IgG1]” value is 0.2 ratio. In assay [2], the “IC50 (read off the curve)” value is roughly 0.05 nM. Further, the concentration for a half-maximal effect (EC50 (read off the curve)) in assay [3] was roughly 10 nM; in [4], roughly 6 nM; in [8], roughly 30 nM; in [9], roughly 20 nM; in assay [11], roughly 8 nM. Besides, the “fold gain in affinity vs control” value was determined as 10 fold in the assay with human FcγR3a-ECD-His [5], 16 fold in the assay with human FcγR2b-ECD-His [6], 7 fold with human FcγR2a-ECD-His [7] and 864 fold in assay [10].

B2: BEAT CD38/CD47-21 (bispecific antibody, human IgG1, kappa)
heavy 1: EVQLVESGGGLIQPGGSLRLSCAASGFTLSRNTMHWVRQAPGKGLEWVSVIYQSGVTRYADSVKSRFTISRDNSKNTLYLQMNSLRAEDTAVYYCARGRYGVAGGPGYAFDVWGQGTLVTVSSASTKGPSVFPLAPSSKSTSGGTAALGCLVKDYFPEPVTVSWNSGALTSGVHTFPAVLQSSGLYSLSSVVTVPSSSLGTQTYICNVNHKPSNTKVDKKVEPKSCDKTHTCPPCPAPELLGGPSVFLFPPKPKDTLMISRTPEVTCVVVDVSHEDPEVKFNWYVDGVEVHNAKTKPREEQYNSTYRVVSVLTVLHQDWLNGKEYKCKVNNKALPAPIEETISKAKGQPREPAVYTLPPSREEMTKNQVKLVCLVTGFYPSDIAVEWESSGQPENNYYTTPPMLDSDGSFSLVSWLNVDKSRWQQGNIFSCSVMHEALHNRFTQKSLSLSPG
heavy 2: QVQLVQSGAEVKKPGSSVKVSCKASGLPDATYAIGWVRQAPGQGLEWMGRIIPRLDAEHYAQKFQGRVTITADESTSTAYMELSSLRSEDTAVYYCARGLGYYLYSSYYFDIWGQGTLVTVSSASTKGPSVFPLAPSSKSTSGGTAALGCLVKDYFPEPVTVSWNSGALTSGVHTFPAVLQSSGLYSLSSVVTVPSSSLGTQTYICNVNHKPSNTKVDKKVEPKSCDKTHTCPPCPAPELLGGPSVFLFPPKPKDTLMISRTPEVTCVVVDVSHEDPEVKFNWYVDGVEVHNAKTKPREEQYNSTYRVVSVLTVLHQDWLNGKEYKCKVNNKALPAPIEETISKAKGQPREPEVATFPPSRDELTKNQVTLVCLVTGFYPSDIAVEWESNGQPENNYKTDPPLLESQGSFALSSRLRVDKSRWQQGNVFSCSVMHEALHNHYTQKSLSLSPG
light: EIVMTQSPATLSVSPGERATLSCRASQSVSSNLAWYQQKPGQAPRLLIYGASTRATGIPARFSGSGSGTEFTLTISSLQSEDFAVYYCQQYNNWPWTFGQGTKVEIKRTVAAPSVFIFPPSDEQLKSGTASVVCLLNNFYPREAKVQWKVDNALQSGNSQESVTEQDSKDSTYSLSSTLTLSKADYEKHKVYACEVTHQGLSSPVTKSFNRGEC
notes: 1+1 format; Fc mutations S324N + K334E in both heavy chains
As for B2, the “KD ratio [BEAT/Control IgG1]” value in assay [1] is 0.4 ratio. The “fold gain in affinity vs control” value turned out to be 1030 fold in assay [12], 2 fold in the assay with human FcγR3a-ECD-His [13], 0.1 fold with human FcγR2b-ECD-His [14] and 1 fold with human FcγR2a-ECD-His [15].

B3: BEAT CD38/CD47-42 (bispecific antibody, human IgG1, kappa)
heavy 1: EVQLVESGGGLIQPGGSLRLSCAASGFTLSRNTMHWVRQAPGKGLEWVSVIYQSGVTRYADSVKSRFTISRDNSKNTLYLQMNSLRAEDTAVYYCARGRYGVAGGPGYAFDVWGQGTLVTVSSASTKGPSVFPLAPSSKSTSGGTAALGCLVKDYFPEPVTVSWNSGALTSGVHTFPAVLQSSGLYSLSSVVTVPSSSLGTQTYICNVNHKPSNTKVDKKVEPKSCDKTHTCPPCPAPELLGGPDVFLFPPKPKDTLMISRTPEVTCVVVDVSHEDPEVKFNWYVDGVEVHNAKTKPREEQYNSTYRVVSVLTVLHQDWLNGKEYKCKVNNKALPAPEEKTISKAKGQPREPAVYTLPPSREEMTKNQVKLVCLVTGFYPSDIAVEWESSGQPENNYYTTPPMLDSDGSFSLVSWLNVDKSRWQQGNIFSCSVMHEALHNRFTQKSLSLSPG
heavy 2: QVQLVQSGAEVKKPGSSVKVSCKASGLPDATYAIGWVRQAPGQGLEWMGRIIPRLDAEHYAQKFQGRVTITADESTSTAYMELSSLRSEDTAVYYCARGLGYYLYSSYYFDIWGQGTLVTVSSASTKGPSVFPLAPSSKSTSGGTAALGCLVKDYFPEPVTVSWNSGALTSGVHTFPAVLQSSGLYSLSSVVTVPSSSLGTQTYICNVNHKPSNTKVDKKVEPKSCDKTHTCPPCPAPELLGGPSVFLFPPKPKDTLMISRTPEVTCVVVDVSHEDPEVKFNWYVDGVEVHNAKTKPREEQYNSTYRVVSVLTVLHQDWLNGKEYKCKVNNKALPAPIEKTISKAKGQPREPEVATFPPSRDELTKNQVTLVCLVTGFYPSDIAVEWESNGQPENNYKTDPPLLESQGSFALSSRLRVDKSRWQQGNVFSCSVMHEALHNHYTQKSLSLSPG
light: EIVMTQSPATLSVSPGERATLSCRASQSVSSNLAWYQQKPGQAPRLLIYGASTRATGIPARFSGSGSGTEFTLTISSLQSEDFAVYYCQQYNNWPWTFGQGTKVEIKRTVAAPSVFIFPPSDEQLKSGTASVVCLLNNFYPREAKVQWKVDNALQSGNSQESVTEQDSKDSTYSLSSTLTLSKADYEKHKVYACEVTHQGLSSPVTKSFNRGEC
notes: 1+1 format; BEAT (A): S239D + I332E + S324N, BEAT (B): S324N
Turning to B3, in assay [1], the “KD ratio [BEAT/Control IgG1]” value came out at 0.5 ratio. Further, the “fold gain in affinity vs control” value in assay [12] worked out at 3750 fold; in the assay with human FcγR3a-ECD-His [13], 11 fold; with human FcγR2b-ECD-His [14], 14 fold; in the assay with human FcγR2a-ECD-His [15] it was 6 fold.
